Experimental data: publication PMC7048932, “Examining sterically demanding lysine analogs for histone lysine methyltransferase catalysis” (Scientific Reports, 2020)

Tests used:
GLP (human) = GLP (human) (UniProt Q9H9B1)
G9a (human) = G9a (human) (UniProt Q96KQ7)
SETD7 (human) = target: T1, SETD7 (human) (UniProt Q8WTS6)
T1 sequence: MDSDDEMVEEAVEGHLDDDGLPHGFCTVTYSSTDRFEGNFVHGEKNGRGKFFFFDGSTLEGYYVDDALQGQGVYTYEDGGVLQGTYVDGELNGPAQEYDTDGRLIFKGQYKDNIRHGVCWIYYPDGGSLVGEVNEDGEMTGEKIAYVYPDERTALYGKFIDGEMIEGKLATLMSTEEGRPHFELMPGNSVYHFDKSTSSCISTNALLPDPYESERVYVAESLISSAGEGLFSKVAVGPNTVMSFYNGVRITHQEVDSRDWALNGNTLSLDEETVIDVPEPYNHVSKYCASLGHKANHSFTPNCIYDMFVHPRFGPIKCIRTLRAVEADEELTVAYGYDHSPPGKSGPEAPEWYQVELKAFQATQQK

[1] = substrate: C[C@H](N)C(=O)N[C@@H](CCCNC(=N)N)C(=O)N[C@H](C(=O)N[C@@H](CCCCN)C(=O)N[C@@H](CCC(N)=O)C(=O)N[C@H](C(=O)N[C@@H](C)C(=O)N[C@@H](CCCNC(=N)N)C(=O)N[C@@H](CCC1CC1N)C(=O)N[C@@H](CO)C(=O)N[C@H](C(=O)NCC(=O)NCC(=O)N[C@@H](CCCCN)C(=O)N[C@@H](C)C(=O)O)[C@@H](C)O)[C@@H](C)O)[C@@H](C)O; experiment: Enzyme kinetics of G9a-catalyzed methylation (MALDI-TOF MS); format: biochemical, human; settings: other: G9a-catalyzed methylation, MALDI-TOF MS assay; pH 8.0; 37.0 °C
Description: To establish the substrate efficiency of lysine- and KCP-containing histone peptides, we carried out enzyme kinetics analysis, employing the MALDI-TOF MS assays[22].
MALDI-MS methyltransferases activity experiments were performed using a Bruker instrument in the reflectron positive mode. For regular methyltransferase standard conditions experiment which carried out in 30 µL total volume, the mixture contains peptide (100 µM), SAM (200 µM), SETD8 or SETD7 (2 µM), in assay buffer 50 mM Tris at optimal pH 8.0. In case of G9a and GLP, similar conditions were used, except (500 µM) of SAM was added to the reaction mixture. Samples were incubated in an Eppendorf vial 1.5 mL using thermomixer for 1 h at 37 °C. A 5 µL aliquot of the solution was mixed with 5 µL of MeOH, after which 5 µL of this mixture was mixed with 5 µL of α-cyano-4-hydroxycinamic acid matrix (CHCA, 5 mg/mL in 125:125 µL acetonitrile/water). The spots were placed on a stainless steel MALDI plate (MS 96 target ground steel BC of Bruker, Germany). The mass corresponding to one monomethylation observed as +14 Da, dimethylation observed as +28 Da and trimethylation observed as +42 Da. The enzymatic activity was determined by taking the peak areas of each methylation state, including all isotopes and adducts, and was annotated using FlexAnalysis software (Bruker Daltonics, Germany). […] Methylated peptide substrates were repeated five times and the unmethylated substrates were triplicated.

Chain of GLP (human) (Q9H9B1 whole entry): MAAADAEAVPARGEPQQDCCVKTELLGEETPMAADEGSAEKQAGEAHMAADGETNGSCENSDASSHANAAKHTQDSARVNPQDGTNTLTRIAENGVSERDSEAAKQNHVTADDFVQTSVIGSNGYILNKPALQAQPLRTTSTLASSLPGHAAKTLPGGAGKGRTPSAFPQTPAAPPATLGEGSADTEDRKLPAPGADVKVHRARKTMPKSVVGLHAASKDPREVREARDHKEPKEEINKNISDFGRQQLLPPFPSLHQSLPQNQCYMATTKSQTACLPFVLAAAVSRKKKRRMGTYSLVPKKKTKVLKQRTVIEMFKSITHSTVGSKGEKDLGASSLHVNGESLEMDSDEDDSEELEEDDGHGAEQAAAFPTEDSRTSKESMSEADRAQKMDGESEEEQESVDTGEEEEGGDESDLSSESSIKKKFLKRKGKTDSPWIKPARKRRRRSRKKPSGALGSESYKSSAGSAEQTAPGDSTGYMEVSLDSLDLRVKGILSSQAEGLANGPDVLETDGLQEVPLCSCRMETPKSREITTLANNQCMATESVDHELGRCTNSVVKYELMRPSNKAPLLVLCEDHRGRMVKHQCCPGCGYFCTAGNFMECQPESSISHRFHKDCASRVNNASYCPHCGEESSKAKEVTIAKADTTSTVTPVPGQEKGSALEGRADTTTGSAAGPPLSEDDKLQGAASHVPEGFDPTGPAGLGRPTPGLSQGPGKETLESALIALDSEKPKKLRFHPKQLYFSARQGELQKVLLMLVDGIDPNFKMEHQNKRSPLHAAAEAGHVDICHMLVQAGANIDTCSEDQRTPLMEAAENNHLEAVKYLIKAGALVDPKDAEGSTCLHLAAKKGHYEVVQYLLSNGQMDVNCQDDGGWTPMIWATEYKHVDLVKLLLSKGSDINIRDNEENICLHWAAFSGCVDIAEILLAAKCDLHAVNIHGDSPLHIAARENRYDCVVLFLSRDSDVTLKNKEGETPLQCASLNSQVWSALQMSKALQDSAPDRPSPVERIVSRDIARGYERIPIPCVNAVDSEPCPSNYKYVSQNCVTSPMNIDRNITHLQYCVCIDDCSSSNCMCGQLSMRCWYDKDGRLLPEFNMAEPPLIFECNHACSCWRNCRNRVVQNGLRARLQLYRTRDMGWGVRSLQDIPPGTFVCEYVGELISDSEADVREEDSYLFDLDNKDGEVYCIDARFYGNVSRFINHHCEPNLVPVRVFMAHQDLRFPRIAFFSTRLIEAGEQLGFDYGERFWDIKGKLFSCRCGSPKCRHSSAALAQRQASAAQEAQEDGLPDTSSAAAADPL

In the case of ARTKQTARYSTGGKA [H3Y9 histone peptide], the IC50 of inhibition of GLP (100 nM) methylation of a 21-mer H3 peptide (residues 1–21, 5 µM) with SAM (20 µM), MALDI-TOF MS (GLP (human)) is reported as greater than 100 µM and the IC50 of inhibition of G9a (100 nM) methylation of a 21-mer H3 peptide (residues 1–21, 5 µM) with SAM (20 µM), MALDI-TOF MS (G9a (human)) is reported as greater than 100 µM.

ARTYQTARKSTGGKA [H3K4 analog histone peptide with tyrosine (Y) at position 4] gave an IC50 of inhibition of SETD7 (100 nM) methylation of a 21-mer H3 peptide (residues 1–21, 5 µM) with SAM (20 µM), MALDI-TOF MS (SETD7 (human)) greater than 100 µM.

B1: G9a (Homo sapiens) (protein)
chain: MAAAAGAAAAAAAEGEAPAEMGALLLEKETRGATERVHGSLGDTPRSEETLPKATPDSLEPAGPSSPASVTVTVGDEGADTPVGATPLIGDESENLEGDGDLRGGRILLGHATKSFPSSPSKGGSCPSRAKMSMTGAGKSPPSVQSLAMRLLSMPGAQGAAAAGSEPPPATTSPEGQPKVHRARKTMSKPGNGQPPVPEKRPPEIQHFRMSDDVHSLGKVTSDLAKRRKLNSGGGLSEELGSARRSGEVTLTKGDPGSLEEWETVVGDDFSLYYDSYSVDERVDSDSKSEVEALTEQLSEEEEEEEEEEEEEEEEEEEEEEEEDEESGNQSDRSGSSGRRKAKKKWRKDSPWVKPSRKRRKREPPRAKEPRGVNGVGSSGPSEYMEVPLGSLELPSEGTLSPNHAGVSNDTSSLETERGFEELPLCSCRMEAPKIDRISERAGHKCMATESVDGELSGCNAAILKRETMRPSSRVALMVLCETHRARMVKHHCCPGCGYFCTAGTFLECHPDFRVAHRFHKACVSQLNGMVFCPHCGEDASEAQEVTIPRGDGVTPPAGTAAPAPPPLSQDVPGRADTSQPSARMRGHGEPRRPPCDPLADTIDSSGPSLTLPNGGCLSAVGLPLGPGREALEKALVIQESERRKKLRFHPRQLYLSVKQGELQKVILMLLDNLDPNFQSDQQSKRTPLHAAAQKGSVEICHVLLQAGANINAVDKQQRTPLMEAVVNNHLEVARYMVQRGGCVYSKEEDGSTCLHHAAKIGNLEMVSLLLSTGQVDVNAQDSGGWTPIIWAAEHKHIEVIRMLLTRGADVTLTDNEENICLHWASFTGSAAIAEVLLNARCDLHAVNYHGDTPLHIAARESYHDCVLLFLSRGANPELRNKEGDTAWDLTPERSDVWFALQLNRKLRLGVGNRAIRTEKIICRDVARGYENVPIPCVNGVDGEPCPEDYKYISENCETSTMNIDRNITHLQHCTCVDDCSSSNCLCGQLSIRCWYDKDGRLLQEFNKIEPPLIFECNQACSCWRNCKNRVVQSGIKVRLQLYRTAKMGWGVRALQTIPQGTFICEYVGELISDAEADVREDDSYLFDLDNKDGEVYCIDARYYGNISRFINHLCDPNIIPVRVFMLHQDLRFPRIAFFSSRDIRTGEELGFDYGDRFWDIKSKYFTCQCGSEKCKHSAEAIALEQSRLARLDPHPELLPELGSLPPVNT
notes: His6 (N); made in house; host or cells: E. coli BL21 (DE3)pLysS-rosetta
B1 gave a Km [1] of 22.6 ± 5.0 µM, a kcat [1] of 0.0463 ± 0.0005 s⁻¹ and a kcat/Km [1] of 2070 M⁻¹ s⁻¹.
